B1: Coiled-coil-helix-coiled-coil-helix domain-containing protein 2 (Homo sapiens), Q9Y6H1 (parent)
chain: MPRGSRSRTSRMAPPASRAPQMRAAPRPAPVAQPPAAAPPSAVGSSAAAPRQPGLMAQMATTAAGVAVGSAVGHTLGHAITGGFSGGSNAEPARPDITYQEPQGTQPAQQQQPCLYEIKQFLECAQNQGDIKLCEGFNEVLKQCRLANGLA
partner: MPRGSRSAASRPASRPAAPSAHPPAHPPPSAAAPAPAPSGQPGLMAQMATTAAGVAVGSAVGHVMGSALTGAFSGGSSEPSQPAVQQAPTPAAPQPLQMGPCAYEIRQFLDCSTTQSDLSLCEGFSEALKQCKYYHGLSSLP

Variants of: B1
Settings: with chc10_human CHCHD10, Q8WYQ3

Variant	effect of a mutation on the interaction
T61I	increasing interaction strength

— IntAct's records for PubMed 30530185
